According to US6846803B1, “Antagonists specific for the corticotropin-releasing factor receptor type 2 (CRFR2)” (priority 1998, dated 2005):
Like-named read-outs stand apart in the source and are kept apart here. Positions of bridges follow the written chain, without caps; N, C: chain ends. Non-standard residues stand in square brackets, D forms with d. No end group written: not given here. *: point of attachment. ATB = 4-(1-azi-2,2,2-trifluoroethyl)benzoyl, O=C(c1ccc(C2(C(F)(F)F)N=N2)cc1)*

T1: rCRFR1 (Rattus norvegicus, UniProt P35353)
T1 construct: expressed in transfected cells; host or cells: HEK 293 cells, stably transfected (HEK-rCRFR1)
T1 sequence (P35353 24-415): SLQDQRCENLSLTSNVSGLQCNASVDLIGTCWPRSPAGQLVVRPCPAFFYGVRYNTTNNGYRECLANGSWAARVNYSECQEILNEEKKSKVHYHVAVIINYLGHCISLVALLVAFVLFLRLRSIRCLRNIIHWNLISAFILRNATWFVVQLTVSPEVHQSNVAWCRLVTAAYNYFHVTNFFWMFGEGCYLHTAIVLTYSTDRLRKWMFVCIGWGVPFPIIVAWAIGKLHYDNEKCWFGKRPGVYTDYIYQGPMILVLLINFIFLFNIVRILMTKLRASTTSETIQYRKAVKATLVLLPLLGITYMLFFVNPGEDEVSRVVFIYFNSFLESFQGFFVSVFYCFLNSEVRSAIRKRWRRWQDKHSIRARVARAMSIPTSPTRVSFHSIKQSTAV

T2: rat CRF receptor, type 1 (rCRFR1) (rat, UniProt P35353 24-415)
T2 sequence (looked up): T1 sequence (P35353 24-415)


How the values were obtained:
[1] = biological target: T3, mCRFR2β (Mus musculus, UniProt Q60748); test: cAMP stimulation / inhibition of Svg-stimulated cAMP production in HEK-mCRFR2β cells; format: cell-based; conditions: for mCRFR2β relative in vitro potency: Table 2, 10 nM antagonist, cAMP production stimulated by 1 nM Svg, Svg alone = 1.00 (lower = stronger inhibition)
T3 construct: expressed in transfected cells; host or cells: HEK 293 cells, stably transfected (HEK-mCRFR2β); membrane homogenates
Procedure: (§1) HEK-rCRFR1 cells or HEK-mCRFR2β cells were incubated with different CRF agonists in the presence or absence of 1 μM or 10 nM antagonist, or CRF antagonist (c=1 μM) alone. After removal of the medium, cells were lyzed with aqueous 6% trichloroacetic acid (5 min, 100° C.) (Rühmann, A., A. K. E. Köpke, F. M. Dautzenberg, and J. Spiess, Proc. Natl. Acad. Sci. USA 93: 10609-10613, 1996). The cell lysates were stored at −70° C. until assayed with a RIA kit (Amersham, Little Chalfont). […] Statistical significance was determined across groups with ANOVA, and significant differences between groups were determined by post hoc comparison using the Dunn test.
(§2) Intrinsic activities were measured at peptide concentrations generating maximal formation of cAMP in HEK-rCRFR1 or HEK-mCRFR2β cells.
Target sequence in this assay (Q60748 1-431 isoform Q60748-2): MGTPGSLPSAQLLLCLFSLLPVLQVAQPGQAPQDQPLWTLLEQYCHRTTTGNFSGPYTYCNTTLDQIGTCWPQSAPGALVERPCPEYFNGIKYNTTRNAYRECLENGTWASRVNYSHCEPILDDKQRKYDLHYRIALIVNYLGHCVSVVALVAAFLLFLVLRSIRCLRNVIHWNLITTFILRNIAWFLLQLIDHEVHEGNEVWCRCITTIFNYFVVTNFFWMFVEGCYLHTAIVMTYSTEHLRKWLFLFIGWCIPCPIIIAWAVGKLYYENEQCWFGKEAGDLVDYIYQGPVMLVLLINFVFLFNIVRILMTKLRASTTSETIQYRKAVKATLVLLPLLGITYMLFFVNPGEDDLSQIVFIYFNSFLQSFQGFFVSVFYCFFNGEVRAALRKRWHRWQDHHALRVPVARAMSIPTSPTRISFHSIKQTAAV

[2] = biological target: T1, rCRFR1; test: cAMP stimulation / inhibition of oCRF-stimulated cAMP production in HEK-rCRFR1 cells; format: cell-based; conditions: for rCRFR1 relative in vitro potency: oCRF alone = 1.00 (lower = stronger inhibition)
Procedure: as §1, §2

[3] = biological target: T1, rCRFR1; test: Displacement of [^125I-Tyr^0]oCRF from membranes of HEK-rCRFR1 cells; format: binding; conditions: membranes of HEK-rCRFR1 cells; read-out: Kd, binding to rCRFR1
Procedure: (§3) Binding assays were performed in 96-well MultiScreen plates (Millipore, Eschborn, Germany) with GF/B filters (pore size 1.0 μm). […] After incubation (60 min, 23° C.), membrane suspension was aspirated through the plate, followed by two washes with assay buffer (0.2 ml, 23°). Radioactivity of the punched filters was measured with a 1470 WIZARD automatic gamma counter (Berthold, Hannover). […] Statistical analysis was performed with ANOVA, and significant differences between groups were determined by post hoc comparison using the Dunn test.
(§4) Membrane homogenates of human embryonic kidney (HEK) 293 cells stably transfected with cDNA coding for rat CRF receptor, type 1 (rCRFR1) or mouse CRF receptor, type 2β (mCRFR2β) were prepared according to standard protocols (see, e.g., Sambrook et al., Molecular Cloning: A Laboratory Manual, 2nd. Edition, Cold Spring Habor Laboratory Press, Cold Spring Habor, N.Y., 1989; Ausubel et al., Current Protocols in Molecular Biology, Green Publishing Associates and Wiley Interscience, NY, 1989).

[4] = biological target: T3, mCRFR2β; test: Displacement of [^125I-Tyr^0]Svg from membranes of HEK-mCRFR2β cells; format: binding; conditions: for Selectivity: Kd(rCRFR1)(peptide)/Kd(rCRFR1)(astressin) × Kd(mCRFR2β)(astressin)/Kd(mCRFR2β)(peptide)
Procedure: as §3, §4

[5] = biological target: mouse CRF receptor, type 2β (mCRFR2β) (mouse) (UniProt Q60748); test: displacement of [125I-Tyr0]Svg from HEK-mCRFR2β membranes
[6] = biological target: mouse CRF receptor, type 2β (mCRFR2β) (mouse) (UniProt Q60748); test: Kd(rCRFR1)/Kd(mCRFR2β) of the peptide normalised to that of astressin; radioligand displacement
[7] = biological target: T2, rat CRF receptor, type 1 (rCRFR1); test: cell-based or functional assay
[8] = biological target: T2, rat CRF receptor, type 1 (rCRFR1); test: displacement of [125I-Tyr0]oCRF from HEK-rCRFR1 membranes
Procedure: as §3

[9] = biological target: T2, rat CRF receptor, type 1 (rCRFR1); test: cell-based or functional assay; remark: listed apart in the source
[10] = biological target: T2, rat CRF receptor, type 1 (rCRFR1); test: displacement of [125I-Tyr0]oCRF from HEK-rCRFR1 membranes; remark: listed apart in the source
Procedure: as §3

[11] = Table 2, 1 μM antagonist, cAMP production stimulated by 1 nM oCRF

Sequence of sauvagine (Svg) (peptide) (peptide): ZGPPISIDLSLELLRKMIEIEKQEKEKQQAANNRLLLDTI

| Molecule | Kd [5] [nM] | Selectivity [6] | % IA (intrinsic activity), cAMP production, HEK-rCRFR1 cells [7] | Kd [8] [nM] | rel. IA (relative intrinsic activity), cAMP production, HEK-rCRFR1 cells [9] | rel. pot. (relative potency), inhibition of oCRF-stimulated cAMP production, HEK-rCRFR1 cells [9] | also measured |
| --- | --- | --- | --- | --- | --- | --- | --- |
| CC[C@H](C)[C@H](NC(=O)[C@H](CC(=O)O)NC(=O)[C@H](CC(C)C)NC(=O)[C@H](CC(C)C)NC(=O)[C@H](CCCCN)NC(=O)[C@H](CCCNC(=N)N)NC(=O)[C@H](CC(N)=O)NC(=O)[C@H](CO)NC(=O)[C@H](Cc1c[nH]cn1)NC(=O)[C@H](C)NC(=O)[C@H](CCC(N)=O)NC(=O)[C@H](CCC(N)=O)NC(=O)[C@H](C)NC(=O)[C@H](CC(C)C)NC(=O)[C@H](CCC(N)=O)NC(=O)[C@H](CC(=O)O)NC(=O)[C@H](C)NC(=O)[C@H](CCCCN)NC(=O)[C@@H](NC(=O)[C@H](CCSC)NC(=O)[C@H](CCC(=O)O)NC(=O)[C@H](CC(C)C)NC(=O)[C@@H](NC(=O)[C@H](CCC(=O)O)NC(=O)[C@H](CCCNC(=N)N)NC(=O)[C@H](CC(C)C)NC(=O)[C@H](CC(C)C)NC(=O)[C@H](Cc1c[nH]cn1)NC(=O)[C@H](Cc1ccccc1)NC(=O)[C@@H](NC(=O)[C@H](CC(C)C)NC(=O)[C@H](CC(=O)O)NC(=O)[C@H](CC(C)C)NC(=O)[C@H](CO)NC(=O)[C@@H](NC(=O)[C@@H]1CCCN1C(=O)[C@@H]1CCCN1C(=O)[C@H](CCC(=O)O)NC(=O)[C@H](CCC(N)=O)NC(=O)[C@@H](N)CO)[C@@H](C)CC)[C@@H](C)O)C(C)C)[C@@H](C)O)C(=O)N[C@@H](C)C(N)=O [compound 1, oCRF, reference compound] | – | – | – | – | – | – | EC50 ([1]; agonist): 11.8 ± 1.96 nM; Emax at 0.001 µM ([2]; Table 2, 1 μM CRF antagonist alone, cAMP production in HEK-rCRFR1 cells, oCRF (1 nM) = 1.00, read-out: rCRFR1 % IA (intrinsic activity)): 100%; rCRFR1 relative in vitro potency [2, 11]: 1.00; Emax ([2]; Table 4, 1 μM CRF antagonist alone, cAMP production, oCRF = 1.00, read-out: HEK-rCRFR1 cells rel. IA (relative intrinsic activity)): 100%; HEK-rCRFR1 cells rel. pot. (relative potency) ([2]; Table 4, 1 μM antagonist, cAMP production stimulated by 1 nM oCRF, oCRF alone = 1.00): 1.00; Kd [3]: 0.6 ± 0.1 nM; Selectivity ([4]; Table 1): 0.002; Kd ([4]; Table 1, [^125I-Tyr^0]Svg as competitive ligand, recombinant mCRFR2β, HEK 293 membranes, read-out: Kd(mCRFR2β)): 162 ± 37.6 nM; Selectivity ([4]; Table 3): 0.002 |
| astressin, cyclo(30-33)[DPhe^12, Nle^21,38, Glu^30, Lys^33]h/rCRF(12-41) (peptide) | 4 | 1 | – | – | – | – | – |
| cyclo(29-32)[DPhe^11, Glu^29, Lys^32]rUcn(11-40) [compound 10] | – | – | – | – | – | – | mCRFR2β relative in vitro potency [1]: 0.89 ± 0.01; rCRFR1 relative in vitro potency [2, 11]: 0.78 ± 0.10; Selectivity ([4]; Table 1): 1.48 |
| sauvagine (Svg) (peptide) | 4.5 | 0.109 | – | – | – | – | – |
| α-helical CRF(9-41) [compound 4, reference compound] | – | – | – | – | – | – | mCRFR2β relative in vitro potency [1]: 0.67 ± 0.02; rCRFR1 relative in vitro potency [2, 11]: 0.58 ± 0.05; Selectivity ([4]; Table 1): 6.61 |
| [dF]HLLRTILELARTQSQRERAEQNRIIFDSV (ends and bridges not checked) [[DPhe^11]rUcn(11-40)] | – | – | 0.07 relative, oCRF = 1.00 | – | – | – | – |
| [dF]ELLRTILELARTQSQRERAEQNRIIFDSV (ends and bridges not checked) [[DPhe^11, Glu^12]rUcn(11-40)] | – | – | 0.22 relative, oCRF = 1.00 | – | – | – | – |
| [dL]ELLRTILELARTQSQRERAEQNRIIFDSV (ends and bridges not checked) [[DLeu^11, Glu^12]rUcn(11-40)] | – | – | 0.23 relative, oCRF = 1.00 | – | – | – | – |
| [dF]HLLRTILELARTQSQREEAEKNRIIFDSV (lactam 19-22; ends not checked) [cyclo(29-32)[DPhe^11, Glu^29, Lys^32]rUcn(11-40)] | – | – | 0.1 relative, oCRF = 1.00 | – | – | – | – |
| {ATB}-HLLRKMIEIEKQEKEKQQAANNRLLLDTI (ends and bridges not checked, also called compound 17) [ATB-[His^12]Svg(12-40)] | – | 32.3 | – | 142 | 0.15 relative, oCRF = 1.00 | 0.54 relative, oCRF = 1.00 | – |
| YLLRKMIEIEKQEKEKQQAANNRLLLDTI (ends and bridges not checked, also called compound 20) [[Tyr^12]Svg(12-40)] | – | 1.63 | – | 996 | 0.06 relative, oCRF = 1.00 | 0.9 relative, oCRF = 1.00 | – |
| [dF]HLLREVLEMTKADQLAQQAHSNRKLLDIA (ends and bridges not checked) [[DPhe^12]oCRF(12-41)] | – | – | 0.05 relative, oCRF = 1.00 | – | – | – | – |
| [dF]ELLRKMIEIEKQEKEKQQAANNRLLLDTI (not fully specified (C-terminus), also called compound 12) [[DPhe^11]Svg(11-40)] | 3.5 | 47.6 | 0.07 relative, oCRF = 1.00 | 237 | 0.07 relative, oCRF = 1.00 | 0.75 relative, oCRF = 1.00 | Kd [10]: 237 nM; relative in vitro potency, inhibition of oCRF-stimulated cAMP production, HEK-rCRFR1 cells [7]: 0.75 relative, oCRF = 1.00 |
| [dL]ELLRKMIEIEKQEKEKQQAANNRLLLDTI (not fully specified (C-terminus), also called compound 13) [[DLeu^11]Svg(11-40)] | 20.9 | 56.1 | 0.22 relative, oCRF = 1.00 | 1670 | 0.22 relative, oCRF = 1.00 | 0.92 relative, oCRF = 1.00 | Kd [10]: 1670 nM; relative in vitro potency, inhibition of oCRF-stimulated cAMP production, HEK-rCRFR1 cells [7]: 0.92 relative, oCRF = 1.00 |
| LELLRKMIEIEKQEKEKQQAANNRLLLDTI (not fully specified (C-terminus), also called compound 14) [Svg(11-40)] | 15.4 | 37.9 | 0.14 relative, oCRF = 1.00 | 831 | 0.14 relative, oCRF = 1.00 | 0.76 relative, oCRF = 1.00 | Kd [10]: 831 nM; relative in vitro potency, inhibition of oCRF-stimulated cAMP production, HEK-rCRFR1 cells [7]: 0.76 relative, oCRF = 1.00 |
| [dF]HLLRKMIEIEKQEKEKQQAANNRLLLDTI (not fully specified (C-terminus)) [antisauvagine-30, [DPhe^11, His^12]Svg(11-40)] | – | 77 | 0.04 relative, oCRF = 1.00 | – | – | – | – |
